For 1 substance, Residual Activity, % DAA (25° C., 5d) after storage in liquid detergent with Savinase protease results are on record in US5792641.

Experiment [1] concerns the target Variant I: V221S+N222S+Q223T (Humicola insolens).
Experiment [2] deals with Variant II: V240P+Q241P (Humicola insolens).
Experiment [3] deals with Humicola insolens 43 kD endoglucanase (Humicola insolens).

As to “Savinase® protease (from UniProt P29600) (enzyme)”, the figures for the Residual Activity, % DAA (25° C., 5d) after storage in liquid detergent with Savinase protease in experiment [1], in experiment [2] and in experiment [3] were 83%, 81% and 63%, respectively.
